Data as given in patent US20240181068A1, “SELECTIVE NEUTRAL PH INHIBITOR OF CATHEPSIN B” (The Regents of the University of California, priority 2021, published 2024).
Peptide text beside a SMILES is read from it. * marks the point of attachment. AOMK = acyloxymethyl ketone warhead replacing the C-terminal carboxyl; AMC = Cc1cc(=O)oc2cc(N*)ccc12; Cbz = O=C(OCc1ccccc1)*

What was measured:
[1] = biological target: T1, cathepsin B (Homo sapiens, UniProt P07858); assay: pH profile of cathepsin B activity with peptide-AMC substrates; format: biochemical; settings: substrate 60 μM
T1 construct: purchased R&D Systems 953-CY-010
Procedure: Cathepsin B activity assayed by fluorogenic peptide substrates. Proteolytic assays of cathepsin B were conducted with Z-Arg-Lys-AMC and Z-Gly-Lys-AMC substrates in 50 mM citrate phosphate at pH 7.2 or pH 4.6, 1 mM EDTA, 100 mM NaCl, and 5 mM DTT. Assays with Z-Phe-Arg-AMC substrate were conducted under identical conditions and included 0.01% Tween20. Assays were performed in 384 well plates at 25° C. in a total volume of 30 μL. Fluorescence was quantified by a Biotek Synergy HTX microplate plate reader with excitation 360 nm, emission 460 nm, gain 50, top optics and read height 1 mm. Proteolytic activity is reported as relative fluorescent units per sec (RFU/sec), and was calculated using the highest slope recorded for 10 consecutive readings. Fluorescent readings were taken in 46 sec intervals and therefore activity is calculated over a total of 460 sec. To ensure that initial velocity is assessed, only readings within the first 30 minutes of the reaction were analyzed. RFU/sec readings were converted to enzyme specific activity of pmol/min/μg using the conversion factor of 1227 RFU per μM AMC.
To generate the pH profile of cathepsin B activity with the substrates Z-Arg-Lys-AMC, Z-Glu-Lys-AMC, and Z-Phe-Arg-AMC, 60 μM of each substrate and 0.04 ng/ul of cathepsin B were assayed in citrate phosphate buffers ranging from pH 2.2 to 7.4 in increments of 0.4 pH units, including pH 7.2. […]

[2] = biological target: T2, cathepsin L (Homo sapiens, UniProt P07711); assay: Specificity of peptide-AMC substrates: cathepsin L; format: biochemical
T2 construct: purchased R&D Systems 952-CY-010
T2 sequence (P07711 114-333): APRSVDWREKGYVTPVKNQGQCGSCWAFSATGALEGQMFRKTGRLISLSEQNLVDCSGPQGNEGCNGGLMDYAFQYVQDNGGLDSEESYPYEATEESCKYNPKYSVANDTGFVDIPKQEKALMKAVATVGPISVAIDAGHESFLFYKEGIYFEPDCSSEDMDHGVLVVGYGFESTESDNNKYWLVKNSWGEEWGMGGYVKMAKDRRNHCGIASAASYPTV

[3] = biological target: T3, cathepsin V (Homo sapiens, UniProt O60911); assay: Specificity of peptide-AMC substrates: cathepsin V; format: biochemical
T3 construct: purchased R&D Systems 1080-CY-010

[4] = biological target: Recombinant human cathepsin B (R&D #953-CY-010) (human) (UniProt P07858); assay: cell-based or functional assay
[5] = biological target: Recombinant human cathepsin B (R&D #953-CY-010) (human) (UniProt P07858); assay: ratio of KI values, fluorogenic cathepsin B assay
[6] = biological target: Recombinant human cathepsin B (R&D #953-CY-010) (human) (UniProt P07858); assay: inactivation kinetics, fluorogenic cathepsin B assay with Z-Phe-Arg-AMC, pH 4.6
[7] = biological target: Recombinant human cathepsin B (R&D #953-CY-010) (human) (UniProt P07858); assay: inactivation kinetics, fluorogenic cathepsin B assay with Z-Phe-Arg-AMC, pH 7.2
[8] = biological target: T4, cathepsin B in human neuroblastoma cells (SHSY5Y) (Homo sapiens, UniProt P07858); assay: Neuroblastoma cells incubated with inhibitors, then cathepsin B assay; format: cell-based; settings: cells incubated with 50 μM inhibitor for 6 hrs, washed, homogenate assayed with Z-Arg-Arg-AMC
T4 construct: endogenous in cells; host or cells: SH-SY5Y human neuroblastoma cells
Procedure: Cathepsin B in human neuroblastoma cells treated with inhibitors. Neuroblastoma cells (human SHSY5Y) were grown in media consisting of 50% MEMalpha, 50% F12-K, 10% heat-inactivated FBS at 37° C. in an atmosphere of 95% air and 5% CO2. Firstly, cell homogenates were prepared by collection of cells in 0.32 M sucrose and freeze-thawing. Secondly, cells were incubated with Z-Arg-Lys-AOMK or CA-074Me for 6 hours at 37° C., and washed 3 times in phosphate-buffered saline and homogenates were prepared in 0.32 M sucrose with freeze-thawing. CA-074Me is a methyl ester form of the active CA-074 selective inhibitor of cathepsin B (70); CA-074Me penetrates the cell and is converted by intracellular esterases to CA-074.
Cathepsin B activity in the homogenates were monitored with Z-Arg-Arg-AMC substrate (60 μM) with buffer conditions of 40 mM citrate-phosphate, pH 5.5, 5 mM DTT, 1 mM EDTA, 100 mM NaCl, and 1.2% DMSO, followed by incubation at 37° C. for 30 minutes and reading of AMC fluorescence. CA-074-senstive activity was monitored to indicate cathepsin B activity, since CA-074 is a selective inhibitor of this enzyme (70). Protein content was measured in homogenates with the DC protein assay kit. Cathepsin B specific activity was calculated as nmol AMC/μg/min, and reported as the mean±SD (with analyses for statistical significance, p<0.05 by student's t-test).

[9] = biological target: cathepsin C (R&D #1071-CY-010) (human, UniProt P53634 25-463); assay: cell-based or functional assay
cathepsin C (R&D #1071-CY-010), sequence (P53634 25-463 limits assumed): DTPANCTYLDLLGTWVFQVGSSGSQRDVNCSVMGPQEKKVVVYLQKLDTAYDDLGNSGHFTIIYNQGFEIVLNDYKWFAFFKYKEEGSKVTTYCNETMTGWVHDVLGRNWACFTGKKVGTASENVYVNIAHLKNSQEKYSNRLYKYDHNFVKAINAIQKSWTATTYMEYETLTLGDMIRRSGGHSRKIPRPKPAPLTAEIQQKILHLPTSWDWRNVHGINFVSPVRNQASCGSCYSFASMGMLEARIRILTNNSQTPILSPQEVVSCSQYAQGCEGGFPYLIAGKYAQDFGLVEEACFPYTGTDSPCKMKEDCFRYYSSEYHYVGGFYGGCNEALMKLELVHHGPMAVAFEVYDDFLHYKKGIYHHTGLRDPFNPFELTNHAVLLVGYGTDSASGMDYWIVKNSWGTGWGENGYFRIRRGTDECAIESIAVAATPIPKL

[10] = biological target: T5, cathepsin K (Abcam #ab157067) (human, UniProt P43235 115-329, limits assumed); assay: cell-based or functional assay
T5 sequence (looked up): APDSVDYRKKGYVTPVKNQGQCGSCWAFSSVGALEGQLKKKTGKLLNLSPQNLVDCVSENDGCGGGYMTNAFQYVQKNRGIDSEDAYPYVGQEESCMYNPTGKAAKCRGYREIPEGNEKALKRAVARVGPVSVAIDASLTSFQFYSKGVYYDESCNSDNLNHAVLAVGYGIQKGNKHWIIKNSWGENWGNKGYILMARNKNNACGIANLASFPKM

[11] = biological target: cathepsin L (R&D #952-CY-010) (human, UniProt P07711 114-333); assay: cell-based or functional assay
cathepsin L (R&D #952-CY-010), sequence (P07711 114-333): as the sequence (P07711 114-333) above

[12] = biological target: cathepsin S (R&D #1183-CY-010) (human, UniProt P25774 17-331); assay: cell-based or functional assay
cathepsin S (R&D #1183-CY-010), sequence (P25774 17-331 limits assumed): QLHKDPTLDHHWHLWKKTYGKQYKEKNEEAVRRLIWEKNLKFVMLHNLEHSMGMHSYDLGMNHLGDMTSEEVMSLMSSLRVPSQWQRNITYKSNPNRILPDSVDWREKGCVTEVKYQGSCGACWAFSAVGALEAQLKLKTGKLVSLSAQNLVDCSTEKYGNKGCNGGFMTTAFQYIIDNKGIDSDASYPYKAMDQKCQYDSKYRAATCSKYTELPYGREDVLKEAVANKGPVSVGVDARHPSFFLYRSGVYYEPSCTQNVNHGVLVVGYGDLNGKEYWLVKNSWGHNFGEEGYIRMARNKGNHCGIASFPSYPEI

[13] = biological target: T6, cathepsin V (R&D #1080-CY-010) (human, UniProt O60911 18-334); assay: cell-based or functional assay
T6 sequence (looked up): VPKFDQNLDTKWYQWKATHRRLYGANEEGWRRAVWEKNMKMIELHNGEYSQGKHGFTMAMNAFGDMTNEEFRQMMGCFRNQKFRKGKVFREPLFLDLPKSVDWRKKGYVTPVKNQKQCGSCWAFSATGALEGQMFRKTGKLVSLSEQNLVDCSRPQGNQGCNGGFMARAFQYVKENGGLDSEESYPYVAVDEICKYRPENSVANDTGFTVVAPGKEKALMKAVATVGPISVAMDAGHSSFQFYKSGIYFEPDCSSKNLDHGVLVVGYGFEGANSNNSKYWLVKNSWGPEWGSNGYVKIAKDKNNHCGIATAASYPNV

[14] = biological target: cathepsin X (UniProt Q9UBR2 24-303, limits assumed); assay: cell-based or functional assay
cathepsin X, sequence (Q9UBR2 24-303 limits assumed): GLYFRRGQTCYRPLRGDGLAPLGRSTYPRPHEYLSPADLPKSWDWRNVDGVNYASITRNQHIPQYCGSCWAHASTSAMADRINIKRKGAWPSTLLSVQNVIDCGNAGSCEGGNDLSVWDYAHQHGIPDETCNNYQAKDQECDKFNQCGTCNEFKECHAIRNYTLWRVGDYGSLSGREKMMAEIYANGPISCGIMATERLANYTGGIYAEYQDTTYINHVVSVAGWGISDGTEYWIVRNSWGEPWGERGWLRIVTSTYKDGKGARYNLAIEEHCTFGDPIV

[15] = biological target: T7, cathepsin H (R&D #75116-CY-010) (human, UniProt P09668 116-335); assay: cell-based or functional assay
T7 sequence (looked up): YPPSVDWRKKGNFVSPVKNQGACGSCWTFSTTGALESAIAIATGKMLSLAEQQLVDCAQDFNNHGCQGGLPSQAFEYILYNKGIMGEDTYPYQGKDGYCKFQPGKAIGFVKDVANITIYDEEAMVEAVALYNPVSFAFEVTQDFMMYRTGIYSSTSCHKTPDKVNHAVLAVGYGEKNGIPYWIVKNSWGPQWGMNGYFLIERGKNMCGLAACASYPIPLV

Molecule: Cc1cc(=O)oc2cc(NC(=O)[C@H](CCCCN)NC(=O)[C@H](CCCNC(=N)N)NC(=O)OCc3ccccc3)ccc12 [Z-Arg-Lys-AMC] (Cbz-Arg-Lys-{AMC})
- pH of maximal hydrolysis by cathepsin B [1]: 7.8
- substrate activity for cathepsin L ([2]; pH 7.2 (data not shown)): no activity
- substrate activity for cathepsin V ([3]; pH 7.2 (data not shown)): no activity

Molecule: Cc1cc(=O)oc2cc(NC(=O)[C@H](CCCCN)NC(=O)[C@H](CCC(=O)O)NC(=O)OCc3ccccc3)ccc12 [Z-Glu-Lys-AMC] (Cbz-Glu-Lys-{AMC})
- pH of maximal hydrolysis by cathepsin B [1]: 4.6
- substrate activity for cathepsin L ([2]; pH 4.6): no activity
- substrate activity for cathepsin V ([3]; pH 4.6): no activity

Molecule: Z-Glu-Lys-AOMK (peptide)
- IC50 of inhibition of cathepsin B activity (Z-Phe-Arg-AMC substrate, no pre-incubation), pH 4.6 [4]: 1.1 µM
- IC50 of inhibition of cathepsin B activity (Z-Phe-Arg-AMC substrate, no pre-incubation), pH 7.2 [4]: 320 nM
- IC50 of inhibition of enzyme activity, pH 4.6 [4]: 1.1 µM
- IC50 of inhibition of enzyme activity, pH 7.2 [4]: 320 nM
- fold greater potency (IC50) for cathepsin B than for cathepsin C, pH 7.2 [4]: 38 fold
- fold greater potency (KI) at pH 7.2 compared to pH 4.6 [5]: 3.5 fold
- Kinact/KI [6]: 2000 M⁻¹ s⁻¹
- Kinact/KI [7]: 8200 M⁻¹ s⁻¹

Molecule: Cc1cc(=O)oc2cc(NC(=O)C(CCCN=C(N)N)NC(=O)C(Cc3ccccc3)NC(=O)OCc3ccccc3)ccc12 (stereo not drawn) [Z-Phe-Arg-AMC] (Cbz-Phe-Arg-{AMC}; configuration not given here)
- substrate activity for cathepsin L ([2]; pH 4.6): cleaved
- substrate activity for cathepsin V ([3]; pH 4.6): cleaved

Molecule: CCCNC(=O)[C@H]1O[C@@H]1C(=O)N[C@H](C(=O)N1CCC[C@H]1C(=O)OC)[C@@H](C)CC [CA-074Me, reference compound]
- inhibition of cellular cathepsin B activity [8]: completely inhibited

Molecule: Z-Arg-Lys-AOMK (peptide)
- IC50 of inhibition of cathepsin B activity (Z-Phe-Arg-AMC substrate, no pre-incubation), pH 4.6 [4]: 1.5 µM
- IC50 of inhibition of cathepsin B activity (Z-Phe-Arg-AMC substrate, no pre-incubation), pH 7.2 [4]: 20 nM
- IC50 of inhibition of cathepsin B activity, pH 6.8 (data not shown) [4]: 22 nM
- IC50 of inhibition of enzyme activity, pH 4.6 [4]: 1.5 µM
- IC50 of inhibition of enzyme activity, pH 7.2 [4]: 20 nM
- fold greater potency (IC50) for cathepsin B than for cathepsin C, pH 7.2 [4]: 43 fold
- fold greater potency (IC50) for cathepsin B than for cathepsin S, pH 7.2 [4]: 110 fold
- fold greater potency (IC50) for cathepsin B than for cathepsin V, pH 7.2 [4]: 22 fold
- reduction of cathepsin B activity (Z-Phe-Arg-AMC substrate) by 64 nM inhibitor, pH 4.6 [4]: 5%
- reduction of cathepsin B activity (Z-Phe-Arg-AMC substrate) by 64 nM inhibitor, pH 7.2 [4]: 93%
- fold greater potency (KI) at pH 7.2 compared to pH 4.6 [5]: 115 fold
- Kinact/KI [6]: 1800 M⁻¹ s⁻¹
- Kinact/KI [7]: 110000 M⁻¹ s⁻¹

Molecule: Cbz-Glu-Lys-{AOMK} [Z-Glu-Lys-AOMK]
- IC50 of inhibition of enzyme activity (Gly-Arg-AMC substrate), pH 4.6 [9]: 8.6 µM
- IC50 of inhibition of enzyme activity (Gly-Arg-AMC substrate), pH 7.2 [9]: 12 µM
- % inhibition of enzyme activity at 16,000 nM inhibitor, pH 4.6 [10]: 10%
- IC50 of inhibition of enzyme activity (Z-Phe-Arg-AMC substrate), pH 4.6 [10]: > 16 µM
- % inhibition of enzyme activity at 16,000 nM inhibitor, pH 4.6 [11]: 23%
- IC50 of inhibition of enzyme activity (Z-Phe-Arg-AMC substrate), pH 4.6 [11]: > 16 µM
- % inhibition of enzyme activity at 16,000 nM inhibitor, pH 4.6 [12]: 26%
- % inhibition of enzyme activity at 16,000 nM inhibitor, pH 7.2 [12]: 30%
- IC50 of inhibition of enzyme activity (Z-Phe-Arg-AMC substrate), pH 4.6 [12]: > 16 µM
- IC50 of inhibition of enzyme activity (Z-Phe-Arg-AMC substrate), pH 7.2 [12]: > 16 µM
- % inhibition of enzyme activity at 16,000 nM inhibitor, pH 7.2 [13]: 10%
- IC50 of inhibition of enzyme activity (Z-Phe-Arg-AMC substrate), pH 4.6 [13]: 1.9 µM
- IC50 of inhibition of enzyme activity (Z-Phe-Arg-AMC substrate), pH 7.2 [13]: > 16 µM

Molecule: Cbz-Arg-Lys-{AOMK} [Z-Arg-Lys-AOMK]
- % inhibition of enzyme activity at 16,000 nM inhibitor, pH 4.6 [14]: 21%
- IC50 of inhibition of enzyme activity (MCA-Arg-Pro-Pro-Gly-Phe-Ser-Ala-Phe-Lys(Dnp)OH substrate), pH 4.6 [14]: > 16 µM
- % inhibition of enzyme activity at 16,000 nM inhibitor, pH 4.6 [9]: 6%
- IC50 of inhibition of enzyme activity (Gly-Arg-AMC substrate), pH 4.6 [9]: > 16 µM
- IC50 of inhibition of enzyme activity (Gly-Arg-AMC substrate), pH 7.2 [9]: 850 nM
- % inhibition of enzyme activity at 16,000 nM inhibitor, pH 7.2 [15]: 29%
- IC50 of inhibition of enzyme activity (Arg-AMC substrate), pH 7.2 [15]: > 16 µM
- % inhibition of enzyme activity at 16,000 nM inhibitor, pH 7.2 [10]: 31%
- IC50 of inhibition of enzyme activity (Z-Phe-Arg-AMC substrate), pH 7.2 [10]: > 16 µM
- % inhibition of enzyme activity at 16,000 nM inhibitor, pH 4.6 [11]: 32%
- IC50 of inhibition of enzyme activity (Z-Phe-Arg-AMC substrate), pH 4.6 [11]: > 16 µM
- % inhibition of enzyme activity at 16,000 nM inhibitor, pH 4.6 [12]: 13%
- IC50 of inhibition of enzyme activity (Z-Phe-Arg-AMC substrate), pH 4.6 [12]: > 16 µM
- IC50 of inhibition of enzyme activity (Z-Phe-Arg-AMC substrate), pH 7.2 [12]: 2.2 µM
- % inhibition of enzyme activity at 16,000 nM inhibitor, pH 4.6 [13]: 63%
- IC50 of inhibition of enzyme activity (Z-Phe-Arg-AMC substrate), pH 4.6 [13]: > 16 µM
- IC50 of inhibition of enzyme activity (Z-Phe-Arg-AMC substrate), pH 7.2 [13]: 440 nM
